B1: antibody A2 (L2H2) (antibody, V domains shown)
VH: QVQLVESGGGVVQPGRSLRLSCAASGFTFSNYGMNWVRQAPGKGLEWVAVIWYDGRNKHYADSVKGRFTISRDNSKNTLYLQMNSLRAEDTAVYYCARGGDWGPYFDYWGQGTLVTVSS
VL: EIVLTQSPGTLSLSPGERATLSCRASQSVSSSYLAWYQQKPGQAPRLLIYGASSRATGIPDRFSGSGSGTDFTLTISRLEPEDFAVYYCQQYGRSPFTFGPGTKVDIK
notes: also called aCTLA-4.4; CTLA4.A2
B2: antibody A5 (L5H5) (antibody, V domains shown)
VH: QVQLVESGGGVVQPGRSLRLSCAASGFTFSSYGMHWVRQAPGKGLEWVAVIWYDGNNKYYADSVKGRFTISRDNSKNTLYLQMYSLRAEDTAVYYCARGGILAAGIFDYWGQGTLVTVSS
VL: EIVLTQSPGTLSLSPGDRATLSCRASQSGSSSYLAWYQQKPGQAPRLLIYGASSRATGIPDRFSGSGSGTDFTLTISRLEPEDFAVYYCQQYGTSPFTSGPGTKVDIK
notes: also called aCTLA-4.28; CTLA4.A5
B3: antibody A7 (L7H7) (antibody, V domains shown)
VH: QVQLVESGGGVVQPGRSLRLSCAASGFTLSSFGMHWVRQAPGKGLEWVAVIWYDGSNKYYADSVKGRFIISRDNSKTALYLQMNSLRAEDTAVYYCARAHYFGAFDIWGQGTMVTVSS
VL: not shown
notes: also called aCTLA-4.3; CTLA4.A7

How the values were obtained:
[1] = target: T1, human CTLA-4 expressed on the cell surface (human, UniProt P16410 36-223); experiment: cell-based or functional assay
mouse CTLA-4 = mouse CTLA-4 (mouse, UniProt P09793 36-161, limits assumed); experiment: BLI (Octet)
How it was run: (§1)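 Antibodies captured on anti-human IgG Fc (AHC) biosensors (Octet Red96); antigen analyte from 300 nM in 6 serial 1:3 dilutions. Kinetics from global fitting to a 1:1 binding model.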

[2] = target: T2, His-tagged cynomolgus CTLA-4 (CT4-C5227; Acro Biosystems) (cynomolgus, UniProt G7PL88 36-161); experiment: BLI (Octet)
T2 construct: also called soluble cynomolgus CTLA-4; cyno CTLA-4
How it was run: as §1

[3] = target: T3, His-tagged human CTLA-4 (CT4-H5229; Acro Biosystems) (human, UniProt P16410 36-161); experiment: SPR (Carterra), soluble human CTLA-4
T3 construct: bought soluble protein; also called soluble human CTLA-4; recombinant human CTLA-4; not shown: His tag

[4] = target: T4, recombinant human CTLA-4-Fc (7268-CT, R&D Systems) (human, UniProt P16410 36-162); experiment: blocking ELISA, plate rhCTLA4-Fc, competitor rhCD80-His
T4 construct: bought; also called rhCTLA-4-Fc; rhCTLA4-Fc; Fc part of the bought chimera not given
Procedure: Plates were coated with rhCTLA4-Fc and then blocked with 1×PBST with 5% w/v nonfat dry milk. After blocking a dilution series of the indicated antibody was added to the plate.

[5] = target: T1, human CTLA-4 expressed on the cell …; experiment: cell-based or functional assay; remark: listed apart in the source
[6] = target: T3, His-tagged human CTLA-4 (CT4-H5229; …); experiment: SPR (Carterra)
How it was run: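 mAb supernatants captured, at two densities, on an anti-human IgG Fc lawn. His-tagged human CTLA-4 injected at 1.95, 7.8, 31.25, 125 and 500 nM in HBS-EPC pH 7.4 with 1.0 mg/mL BSA, as a non-regenerative series with 5-min association and 15-min dissociation. Double-referenced data fitted for ka, kd and KD.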

[7] = target: T4, recombinant human CTLA-4-Fc (7268-CT, …); experiment: blocking ELISA, coated CTLA-4-Fc, competitor His-CD86
Procedure: (§2) Table 24. […] Summary of blocking ELISA data from FIG. 13B. […] The data were then analyzed and fit by nonlinear regression.
(§3) ELISA plates (Nunc, MaxiSorp ELISA plates, flat bottom, uncoated, BioLegend, San Diego, Calif., USA) were coated with recombinant human CTLA-4-Fc (7268-CT, R&D Systems, Minneapolis, Minn., USA) at 1 μg/mL overnight at 4° C. Plates were then blocked with 5% milk in phosphate buffered saline with tween 20 (PBST) for 1 hour at room temperature. A titration series of the indicated mAbs was then added to the plates and then the plates were incubated for 1 hour at room temperature to allow mAb binding. Excess, unbound mAb was removed by washing with PBST. […] After incubation for 1 hour at room temperature, the plates were washed to remove unbound ligand. Bound ligand was detected with a horseradish peroxidase (HRP)-conjugated anti-His antibody (652504, BioLegend, San Diego, Calif., USA). After incubation for 1 hour at room temperature and washing, the plates were developed with 3,3′,5,5′-Tetramethylbenzidine (TMB) substrate (34028, Pierce, Waltham, Mass., USA). […] Absorbance at 450 nm was read using a Spectramax i3x plate reader (Molecular Devices. San Jose, Calif., USA). Half maximal inhibitory concentration (IC50) values were calculated by plotting absorbance versus the log of concentration using Prism (GraphPad, San Diego, Calif., USA).

[8] = target: T4, recombinant human CTLA-4-Fc (7268-CT, …); experiment: blocking ELISA, coated CTLA-4-Fc, competitor His-CD80
Procedure: as §2, §3

T2 sequence (G7PL88 entry or part of it limits assumed, form in doubt): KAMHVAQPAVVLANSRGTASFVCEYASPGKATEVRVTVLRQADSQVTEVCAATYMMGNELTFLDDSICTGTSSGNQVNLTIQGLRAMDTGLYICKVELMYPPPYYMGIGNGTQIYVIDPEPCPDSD
T3 sequence (P16410 36-161 limits assumed): as the sequence (G7PL88 entry or part of it limits assumed, form in doubt) above, with N14S, T18I, M106L counted along it
Chain of mouse CTLA-4 (P09793 36-161 limits assumed): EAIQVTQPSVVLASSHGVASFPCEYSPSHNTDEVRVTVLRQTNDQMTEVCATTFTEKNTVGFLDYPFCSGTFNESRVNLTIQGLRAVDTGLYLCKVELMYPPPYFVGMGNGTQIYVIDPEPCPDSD
T4 sequence (P16410 36-162): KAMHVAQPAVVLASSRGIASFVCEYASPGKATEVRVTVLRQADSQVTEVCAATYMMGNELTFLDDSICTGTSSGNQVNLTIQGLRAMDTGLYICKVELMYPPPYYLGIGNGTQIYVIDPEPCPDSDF
T1 sequence (P16410 36-223 limits assumed): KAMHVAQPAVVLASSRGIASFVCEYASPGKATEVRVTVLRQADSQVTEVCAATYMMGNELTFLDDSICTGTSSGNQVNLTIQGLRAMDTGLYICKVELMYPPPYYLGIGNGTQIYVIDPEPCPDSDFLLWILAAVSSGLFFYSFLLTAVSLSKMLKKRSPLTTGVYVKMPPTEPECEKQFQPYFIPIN

Binder | Cell-based blocking activity EC50 [1] [µg/mL] | Cell-based blocking activity max signal (RLU) [1] [RLU] | binding result (mouse CTLA-4) | Kd [2] [nM] | Kd [3] [nM] | koff [3] [s⁻¹] | kon [3] [M⁻¹ s⁻¹] | CD80 % inhibition [4] [%] | EC50 [4] [µg/mL] | Promega assay % inhibition [5] [%] | Promega assay antagonist (EC50, ug/mL) [5] [µg/mL] | Kd [6] [nM] | koff [6] [s⁻¹] | kon [6] [M⁻¹ s⁻¹] | Kd (mouse CTLA-4) [nM] | IC50 [7] [µg/mL] | IC50 [8] [µg/mL]
B1 | 0.12 | 413 | no binding (tested: 300 nM) | 3.1 | 5.1 | 0.00052 | 100000 | 95.4 | 0.101 | 75.4 | 0.12 | 5.1 | 0.00052 | 100000 |  |  | 
B2 | 0.18 | 548 |  | 2.2 | 4.6 | 0.00042 | 90000 | 96.3 | 0.0705 | 100 | 0.18 | 4.6 | 0.00042 | 90000 | 39.4 | 0.12 | 0.12
B3 | 0.17 | 63 | no binding (tested: 300 nM) | 0.75 | 5.7 | 0.00036 | 64000 | 92.1 | 0.996 | 11.5 | 0.17 | 5.7 | 0.00036 | 64000 |  |  | 
